One data set has as its system BxPC-3 tumors. The data set can be described thus: BxPC-3 xenograft pharmacodynamic (PD) study, western blotting of tumor lysates. The format is in vivo, human. Particulars: BxPC-3 PD study tumors. For orientation: Xenograft models place foreign cells or tissue in a host animal.
For data set [1], the system named is HepG2 hepatocellular carcinoma cells. The data set can be described thus: HepG2 quantitative western blotting. Format: cell-based, human. The note with it: 2 hours or 6 hours, compared to either alone, FIG. 5. The protocol: Cells were treated with 500 nM P4-G1-M1.3, […] sorafenib or the combination for either 2 hours or 6 hours and quantitative western blotting was performed.
Buffer containing β-Mercaptoethanol (β-ME) is added and lysates are boiled for 5 minutes at 95° C. Approximately 40 μg of protein and two ladders (Invitrogen) are run on each well of an 18-well gel (BioRad). Gels are run at 150 volts constant for approximately 90 minutes and transferred to nitrocellulose membranes using the 8 minute transfer program of the iBlot® (Invitrogen) transfer system. Membranes are blocked in Odyssey® Blocking Buffer (Licor® Biosciences) for 1 hour at room temperature, and then incubated with primary antibodies overnight at 4° C. in 5% BSA in TBS-T. All antibodies are purchased from Cell Signaling and used at the recommended dilution. The following day membranes are washed 3×5 minutes each with TBS-T and then incubated with anti-Rabbit IgG—DyLight® 800 (Cell Signaling) or anti-Rabbit IRDye® 800 (Licor® Biosciences) at 1:10,000-15,000 in 5% milk in TBS-T for 1 hour at room temperature. Membranes were then washed 3×5 minutes each with TBS-T and scanned using the Licor® Odyssey® system (Licor® Biosciences). Intensities are quantified using Image Studio 2.0 and normalized to β-Actin levels. […]
For orientation: A western blot detects proteins with antibodies after separation by electrophoresis.

In the next data set the test system is melanoma. The data set can be described thus: Treatment of patients with melanoma. Format: in vivo, human. Particulars: vemurafenib or dabrafenib + P4-G1-M1.3. As for the experimental part: (§1) P4-G1-M1.3 is formulated in 20 mM histidine, 100 mM arginine-HCl, 3% sucrose, at pH 5.5 supplemented with 0.002-0.02% of Tween® 80 at concentration range 5-15 mg/mL. P4-G1-M1.3 is administered to patients at 6 mg/kg, 12 mg/kg, 20 mg/kg, 30 mg/kg, 40 mg/kg, 50 mg/kg or 60 mg/kg q7d, ql4d, q21d, or q28d with a loading dose of 12 mg/kg, 20 mg/kg, 40 mg/kg, 40 mg/kg or 60 mg/kg Everolimus is administered to patients at 2.5 mg, 5 mg, or 10 mg orally once a day or once every other day.
Patients with melanoma are treated by administration of either monotherapy with an effective amount of vemurafenib (Zelboraf®) or an effective amount of P4-G1-M1.3, or with combination therapy comprising or consisting of administration of both the effective amount of vemurafenib or dabrafenib and the effective amount of P4-G1-M1.3. P4-G1-M1.3 is formulated and administered as described above in Example 1. Vemurafenib is given orally at 960 mg 1-2 times daily. Dabrafenib is administered as administered in dabrafenib phase III clinical trials.

Data set [2] concerns gastrointestinal neuroendocrine tumors. The data set can be described thus: Treatment of patients with gastrointestinal neuroendocrine tumors. The format is in vivo, human. As for the experimental part:
as §1
Patients with gastrointestinal neuroendocrine tumors are treated by administration of either monotherapy with an effective amount of everolimus or an effective amount of P4-G1-M1.3, or with combination therapy comprising or consisting of administration of both the effective amount of everolimus and the effective amount of P4-G1-M1.3. P4-G1-M1.3 and everolimus are prepared and dosed as described in Example 1.
Patients with gastrointestinal neuroendocrine tumors are treated by administration of either monotherapy with an effective amount of mTOR inhibitor temsirolimus (Torisel®) or an effective amount of P4-G1-M1.3, or with combination therapy comprising or consisting of administration of both the effective amount of temsirolimus and the effective amount of P4-G1-M1.3. P4-G1-M1.3 is prepared and dosed as described in Example 1. Temsirolimus is dosed at 2.5 mg, 7.5 mg, 15 mg, or 25 mg (25 mg is the manufacturer's recommended dose) infused over a 30-60 minute period once a week.
Patients with gastrointestinal neuroendocrine tumors are treated by administration of either monotherapy with an effective amount of mTOR inhibitor sirolimus (Rapamune®) or an effective amount of P4-G1-M1.3, or with combination therapy comprising or consisting of administration of both the effective amount of sirolimus and the effective amount of P4-G1-M1.3. P4-G1-M1.3 is prepared and dosed as described in Example 1.

Another data set concerns pancreatic carcinoma. As to the kind of experiment: Treatment of patients with pancreatic cancer. Format: in vivo, human. As for the experimental part:
as §1
Patients with pancreatic carcinoma are treated with a combination of an effective amount of gemcitabine, cytarabine, capecitabine, or 5-fluorouracil (5-FU) and an effective amount of P4-G1-M1.3. Patients are dosed with P4-G1-M1.3 as described in Example 1. Patients are dosed with the manufacturer's recommended dose of gemcitabine, capecitabine or 5-FU.
Patients with pancreatic cancer (KRAS wild-type and KRAS mutant) are treated with a combination of an effective amount of a MEK inhibitor (e.g., GSK1120212, BAY 86-9766 or AZD6244) and an effective amount of P4-G1-M1.3. Patients are dosed with P4-G1-M1.3 as described in Example 1. The clinical dose of MEK inhibitor is the dose used for that inhibitor in phase II or phase III clinical trials.

The test system of data set [3] is Caki-1 renal cell carcinoma cancer cells. As to the kind of experiment: Caki-1 renal cell carcinoma xenograft study. Format: in vivo, human. The protocol:
The y-axis represents mean tumor volume in mm^3 and the x-axis represents time in days.
For each of the xenograft studies below, cells are resuspended 1:1 with PBS:Growth factor-reduced Matrigel® and injected subcutaneously into Nu/Nu mice. Tumors are allowed to develop for 8 days. Antibodies are injected intraperitoneally every 3 days (q3d) at the indicated doses/mouse. Tumor lengths and widths are measured twice a week manually by caliper, and tumor volume calculated using the following formula: π/6(L×W^2). Each arm of a study contains 10 animals. All studies are carried out using methods approved by an internal IACUC panel. […]

We go through one molecule from patent publication US20180036395A1, “DOSAGE AND ADMINISTRATION OF MONOSPECIFIC AND BISPECIFIC ANTI-IGR-1R AND ANTI-ERBB3 ANTIBODIES” (Merrimack Pharmaceuticals, Inc., priority 2012, published 2018).

Protocol for BxPC-3 tumors: BxPC-3 mouse xenograft models are established using 5×10^6 BxPC-3 cells that are resuspended 1:1 with PBS:Growth factor-reduced Matrigel® and injected subcutaneously into Nu/Nu mice. Tumors are allowed to develop for 8 days. Antibodies are injected intraperitoneally every 3 days (q3d) for 2 rounds of dosing.
For the BxPC-3 PD study, 4 treatment groups are established, each containing 4 mice. These included control, P4-G1-M1.3 (q3d, 600 μg), gemcitabine (q3d, 150 mg/kg) and P4-G1-M1.3+gemcitabine (combined individual doses). Tumors are excised on either day 19 or day 28, resulting in a total of 8 groups.
Tumors are initially weighed and pulverized in a CryoPrep® tissue pulverizer (Covaris). Tissue Extraction Reagent 1 (TER1, Life Technologies™) containing protease and phosphatase inhibitors was added to the tumor at a ratio of lml TER1 per 100 mg of tissue. Samples are incubated on ice for 30 minutes to solubilize tissue and put through a QIAshredder™ column (Qiagen) according to the manufacturer's protocol. A BCA assay (Pierce) is performed to determine protein concentration according to the manufacturer's protocol.
Using BxPC-3 xenografts, mice with control tumors were compared to those treated with monotherapy with P4-G1-M1.3, monotherapy with gemcitabine or combination therapy with P4-G1-M1.3 and gemcitabine.

B1: P4-G1-M1.3: anti-IGF-1R+anti-ErbB3 polyvalent bispecific antibody, IgG1-(scFv)2 (SEQ ID NO:148 and SEQ ID NO:149) (protein)
chain 1: EVQLLQSGGGLVQPGGSLRLSCAASGFLFSSYPMHWVRQAPGKGLEWVGSISPSGGATPYADSVKGRFTISRDNSKNTLYLQMNSLRPEDTAVYYCAKDFYNILTGNAFDKWGQGTSVTVSSASTGGGGSGGGGSGGGGSGGGGSDIQLTQSPSSLSASLGDRVTITCRASQGISSYLAWYQQKPGKAPKLLIYAGSTPQSGVPSRFSGSGSGTEFTLTISSLQPEDSGTYYCQQYWTWPLTFGGGTKVEIKRT
chain 2: EVQLVESGGGLVQPGRSLRLSCAASGFTFDDYAMHWVRQAPGKGLEWVSGISWNSGSTGYADSVKGRFTISRDNAKNSLYLQMNSLRAEDTALYYCARDLGYNQWLEGFDYWGQGTLVTVSSASTGGGGSGGGGSGGGGSGGGGSSSELTQDPAVSVALGQTVRITCQGDSLRSYYASWYQQKPGQAPVLVIYGKNNRPSGIPDRFSGSSSGNTASLTITGAQAEDEADYYCMSRDHPGNQWVFGGGTKVTVLG
modifications: Synthetic polypeptide:Anti-IGF-1R scFvs M76; Synthetic polypeptide:Anti-ErbB3 scFvs P6L
As for B1, the ERK phosphorylation entry in the data set with BxPC-3 tumors (FIG. 2H) is on record as “inhibits ERK phosphorylation”. Further, in the data set on BxPC-3 tumors (P4-G1-M1.3 600 μg + gemcitabine 150 mg/kg q3d, FIG. 2H), the “apoptosis-inducing activity of gemcitabine (survivin)” value is “potentiates apoptosis-inducing activity of gemcitabine”. Besides, the “level of receptor complexes (IGF-1R, Insulin Receptor, EGFR, ErbB3, ErbB2)” value in the data set with BxPC-3 tumors (P4-G1-M1.3 q3d 600 μg, FIG. 2A-2C) is listed as “downregulates receptor complexes”. In addition, in the data set on BxPC-3 tumors (P4-G1-M1.3 q3d 600 μg, FIG. 2D-2G, 2I, 2J), the “PI3K/AKT/mTOR signaling (phospho-AKT, phospho-FoxO, phospho-PDK1, phospho-mTOR, phospho-S6, pRAS40, p4EB-PB1)” value is recorded as “inhibits PI3K/AKT/mTOR signaling”. Also, the “downstream signaling (pErbB3, pAkt Ser473, pERK1/2)” value in data set [1] (combination of 500 nM P4-G1-M1.3 and 504 sorafenib) is listed as “inhibits downstream signaling”. Also, the ErbB3 level result in data set [1] (combination of 500 nM P4-G1-M1.3 and sorafenib) was “downregulation of ErbB3”. Moreover, the treatment outcome was “combinatorially enhanced outcome” in the data set with melanoma; “combinatorially enhanced outcome” in data set [2] (everolimus + P4-G1-M1.3); “combinatorially enhanced outcome” in data set [2] (sirolimus + P4-G1-M1.3); “combinatorially enhanced outcome” in data set [2] (temsirolimus + P4-G1-M1.3); “combinatorially enhanced outcome” in the data set on pancreatic carcinoma (pancreatic cancer (KRAS wild-type and KRAS mutant), MEK inhibitor (GSK1120212, BAY 86-9766 or AZD6244) + P4-G1-M1.3); “combinatorially enhanced outcome” with pancreatic carcinoma (patients with pancreatic carcinoma, gemcitabine, cytarabine, capecitabine, or 5-fluorouracil + P4-G1-M1.3). The “response to everolimus (tumor growth)” value in data set [3] (Caki-1 xenograft in Nu/Nu mice, 3mpk everolimus+500 μg P4-G1-M1.3, FIG. 1) is on record as “potentiates responses to everolimus”. Also, the “tumor growth (mean tumor volume)” value in data set [3] (Caki-1 xenograft in Nu/Nu mice, P4-G1-M1.3 at 500, 300, or 100 μg, FIG. 1) is recorded as “suppresses tumor growth”. Moreover, the tumor growth result in data set [3] (Caki-1 xenograft, Example 12) was “suppresses tumor growth”. Besides, the response to sirolimus result in data set [3] (Caki-1 xenograft, combination with sirolimus) is listed as “potentiates responses to sirolimus”.
